Article PMC4538820, “The XRCC1 phosphate-binding pocket binds poly (ADP-ribose) and is required for XRCC1 function” (Nucleic Acids Research, 2015)

What was measured:
[1] = biological target: ribosylated histone H1 (adsorbed to microwells, ribosylated with PARP1 and NAD+); assay: microwell plate binding assay (absorbance at 450 nm); settings: read off a plot
[2] = biological target: mock-ribosylated histone H1 (adsorbed to microwells, no NAD+); assay: as above; settings: 0 μM NAD+, read off a plot
[3] = biological target: T1, ribosylated PARP1 (adsorbed to microwells, ribosylated with PARP1 and NAD+) (human, UniProt P09874 1-1014, poly (ADP-ribosyl)ated by PARP1 in the presence of 1–50 μM NAD+; sites not stated); assay: ELISA; PARP1, histone H1 or BSA adsorbed to microwells (0.1 mg/ml in PBS), mock-ribosylated (no NAD+) or ribosylated with 5 nM PARP1 and 1–50 μM NAD+; 25 nM His-XRCC1 in 20 mM Tris pH7.5, 130 nM NaCl, 30 min on ice; detected with anti-His Mab and HRP secondary, A450; settings: both partners purified
T1 construct: PARP1, poly (ADP-ribose) polymerase 1; 'recombinant, human, full length' is printed for the 5 nM PARP1 of the reaction; Species and form are printed for the PARP1 used as enzyme; I took the adsorbed PARP1 to be the same preparation; also called PARP1 +NAD+; autoribosylated PARP1; source: recombinant
T1 sequence (P09874 whole entry): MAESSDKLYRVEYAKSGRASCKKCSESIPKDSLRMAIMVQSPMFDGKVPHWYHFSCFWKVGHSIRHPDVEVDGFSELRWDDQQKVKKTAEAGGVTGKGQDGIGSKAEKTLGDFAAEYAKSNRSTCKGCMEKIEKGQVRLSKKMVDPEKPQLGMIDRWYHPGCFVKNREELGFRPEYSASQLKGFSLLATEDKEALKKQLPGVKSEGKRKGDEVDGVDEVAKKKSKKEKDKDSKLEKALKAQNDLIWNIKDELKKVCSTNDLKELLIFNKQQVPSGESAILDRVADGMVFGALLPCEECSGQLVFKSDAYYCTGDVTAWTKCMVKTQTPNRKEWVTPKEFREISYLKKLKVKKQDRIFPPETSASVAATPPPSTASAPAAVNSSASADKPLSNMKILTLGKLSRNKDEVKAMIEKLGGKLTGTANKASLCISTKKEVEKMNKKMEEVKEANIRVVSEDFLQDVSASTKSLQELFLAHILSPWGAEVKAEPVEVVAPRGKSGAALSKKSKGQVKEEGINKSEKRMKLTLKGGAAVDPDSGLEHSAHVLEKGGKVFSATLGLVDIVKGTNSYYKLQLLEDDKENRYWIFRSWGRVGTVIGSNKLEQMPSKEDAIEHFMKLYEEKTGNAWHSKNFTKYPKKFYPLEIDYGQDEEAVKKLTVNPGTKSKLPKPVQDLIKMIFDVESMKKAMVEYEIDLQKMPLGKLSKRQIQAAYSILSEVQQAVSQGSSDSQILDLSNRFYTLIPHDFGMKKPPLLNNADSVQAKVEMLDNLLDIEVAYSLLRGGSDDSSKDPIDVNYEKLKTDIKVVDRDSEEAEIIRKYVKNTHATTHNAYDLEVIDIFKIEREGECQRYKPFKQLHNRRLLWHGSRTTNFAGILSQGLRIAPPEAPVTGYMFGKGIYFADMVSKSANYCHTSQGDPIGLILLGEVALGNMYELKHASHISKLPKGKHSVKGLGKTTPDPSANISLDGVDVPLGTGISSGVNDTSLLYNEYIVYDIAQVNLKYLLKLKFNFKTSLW

Molecule | response ([1]; adsorbed histone H1 ribosylated with 1 μM NAD+, parent: est. 1.7) [Abs 450nm] | response ([1]; adsorbed histone H1 ribosylated with 10 μM NAD+, parent: est. 2.1) [Abs 450nm] | response ([1]; adsorbed histone H1 ribosylated with 50 μM NAD+, parent: est. 2.2) [Abs 450nm] | response ([1]; left panel, calf thymus histone ribosylated with 0.5 μM NAD+, no competitor, parent: est. 0.82) [Abs 450nm] | response ([2]; adsorbed histone H1 mock-ribosylated, parent: est. 0.11) [Abs 450nm] | response ([2]; left panel, calf thymus histone mock-ribosylated, no competitor, parent: est. 0.10) [Abs 450nm] | binding result [3]
His-XRCC1^161–406 (from UniProt P18887) R335A; K369A | 0.12 | 0.78 | 1.2 | 0.11 | 0.1 | 0.12 | 
His-XRCC1^161–406 (domain or fragment, human, UniProt P18887 161-406, looked up, Vector pTWO-E (from pET-17b) adds an N-terminal His6 tag that can be cleaved by rhinovirus 3C; also called wild-type histidine-tagged fragment of human XRCC1 spanning the conserved BRCT1 domain; source: E. coli Rosetta2 (DE3)pLysS, purified (Talon resin, heparin column); not shown: His6, N-terminal, kept) PSQKVTVTKLGQFRVKEEDESANSLRPGALFFSRINKTSPVTASDPAGPSYAAATLQASSAASSASPVSRAIGSTSKPQESPKGKRKLDLNQEEKKTPSKPPAQLSPSVPKRPKLPAPTRTPATAPVPARAQGAVTGKPRGEGTEPRRPRAGPEELGKILQGVVVVLSGFQNPFRSELRDKALELGAKYRPDWTRDSTHLICAFANTPKYSQVLGLGGRIVRKEWVLDCHRMRRRLPSQRYLMAGP |  |  |  |  |  |  | binds
